Test results taken from patent publication US20220185894A1 (F STAR THERAPEUTICS, published 2022).
Values joined by “and” are separate entries in the source; they are usually repeats but may differ in a detail not shown here. Equal values may be shown once.

Key:
[1] = biological target: T1, cynomolgus LAG-3 expressed on cells (cynomolgus monkey, UniProt P18627 24-525 (human entry)); assay: flow cytometry on HEK cells expressing cynomolgus LAG-3
T1 construct: also called cLAG-3; cyno LAG-3
T1 chain: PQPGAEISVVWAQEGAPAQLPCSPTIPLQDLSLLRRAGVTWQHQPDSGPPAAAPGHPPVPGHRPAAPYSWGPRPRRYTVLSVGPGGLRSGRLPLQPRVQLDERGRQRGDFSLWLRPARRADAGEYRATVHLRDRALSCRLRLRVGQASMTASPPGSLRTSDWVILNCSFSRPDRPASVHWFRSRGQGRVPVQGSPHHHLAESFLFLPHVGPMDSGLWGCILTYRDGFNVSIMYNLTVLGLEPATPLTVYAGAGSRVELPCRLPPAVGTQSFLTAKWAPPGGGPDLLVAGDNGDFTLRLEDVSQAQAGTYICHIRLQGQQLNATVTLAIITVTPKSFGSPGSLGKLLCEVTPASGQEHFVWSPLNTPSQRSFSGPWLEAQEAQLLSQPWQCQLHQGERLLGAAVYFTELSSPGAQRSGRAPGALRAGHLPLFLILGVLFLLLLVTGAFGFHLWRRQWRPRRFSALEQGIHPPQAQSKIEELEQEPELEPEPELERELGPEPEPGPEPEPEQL
Method: (§1) The affinity of the mAb² (all containing the LALA mutation) for cell expressed human or cynomolgus LAG-3 was determined using flow cytometry. HEK cells expressing human or cynomolgus LAG-3 grown in DMEM (Life Technologies, 61965-026) containing 10% FBS (Life Technologies, 10270-1-6), 100 μg/ml Hygromycin B (Melford Laboratories Ltd, Z2475), 15 μg/ml Blasticidin (Melford Laboratories Ltd, B1105) and 1 μg/ml Doxycyclin (Sigma, D9891) were detached from tissue culture flasks using cell dissociation buffer (Life Technologies, 13151-014) and seeded in V-bottom 96-well plates (Costar, 3897) at 2×10⁵ cells/well. The plates were centrifuged at 1500 rpm for 3 min at 4° C. to pellet the cells. A dilution series of the mAb² (or control mAb) were incubated with the cells in a 100 μl volume for 1 h at 4° C. The plates were washed and secondary antibody (Anti-human Fc-488, Jackson ImmunoResearch, 109-546-098) was diluted 1:1000 in PBS and 100 μl was added to the cells for 30 min at 4° C. (plates were kept in the dark). The plates were washed and then cells were resuspended in 100 μl PBS containing 1 μg/ml DAPI (Biotium, 40043). The plates were read using Canto II flow cytometer (BD Bioscience). Dead cells were excluded and the fluorescence in the FITC channel (488 nm/530/30) was measured. The data was fit using log (agonist) vs response in GraphPad Prism Software. The plates were read on a BD FACSCanto II cytometer (BD Biosciences) and the data analysed using FlowJo.

[2] = biological target: T2, cynomolgus PD-L1 expressed on cells (cynomolgus monkey, UniProt Q9NZQ7 19-290 (human entry)); assay: flow cytometry on HEK cells expressing cynomolgus PD-L1
T2 construct: also called cPD-L1; cyno PD-L1
Method: as §1, with “HEK cells” for “The affinity of the mAb² (all containing the LALA mutation) for cell expressed human or cynomolgus LAG-3 was determined using flow cytometry. HEK cells”, “or cynomolgus PD-L1 grown in” for “or cynomolgus LAG-3 grown in”, “control mAb) was incubated with” for “control mAb) were incubated with”, “were washed then cells” for “were washed and then cells”

[3] = biological target: T3, recombinant Fc-tagged human LAG-3 (R&D Systems, 2319-L3-050) (human, UniProt P18627 23-450); assay: SPR, BIAcore T200; mAb2 captured on Protein L, human LAG-3 Fc injected
T3 construct: Bought protein; also called LAG-3 Fc; human LAG-3-Fc; not shown: Fc tag of the bought fusion protein
T3 sequence: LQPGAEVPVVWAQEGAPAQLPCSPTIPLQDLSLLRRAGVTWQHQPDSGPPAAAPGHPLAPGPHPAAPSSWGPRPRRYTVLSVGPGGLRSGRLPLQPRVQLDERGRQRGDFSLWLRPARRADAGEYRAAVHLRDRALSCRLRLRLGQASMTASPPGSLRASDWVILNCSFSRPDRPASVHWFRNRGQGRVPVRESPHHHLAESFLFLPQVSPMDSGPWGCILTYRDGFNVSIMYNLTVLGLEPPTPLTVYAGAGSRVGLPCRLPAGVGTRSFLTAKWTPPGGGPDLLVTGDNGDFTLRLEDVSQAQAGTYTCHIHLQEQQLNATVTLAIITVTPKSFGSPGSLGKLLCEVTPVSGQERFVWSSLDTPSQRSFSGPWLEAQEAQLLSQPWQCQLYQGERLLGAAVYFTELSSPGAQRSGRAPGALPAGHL
Method: Protein L (Thermo, 21189) was immobilized on flow cells 1 and 2 of a Series S CM5 chip (GE Healthcare, BR-1005-30) by amine coupling (GE Healthcare, BR-1000-50) to a surface density of 2000 RU by following the manufacturer's instructions for the BIAcore T200 instrument. […] The association time was 3 min and the dissociation time was 6 min. Running buffer was HBS-P (GE Healthcare, BR-1003-68). Both flow cells were regenerated by injecting 10 mM sodium hydroxide (NaOH) at a flow rate of 100 μl/min for 20 seconds. The data were analysed by double referencing against the blank flow cell.
The binding kinetics were fit with a 1:1 Langmuir model to generate binding association (kₐ) and dissociation (kd) rates. Equilibrium binding constants (KD) were calculated by dividing the dissociation rate by the association rate for each sample. Data analysis was performed with BiaEvaluation software version 3.2.

T2 sequence (Q9NZQ7 other isoform, or with tags, fused parts or gaps limits assumed): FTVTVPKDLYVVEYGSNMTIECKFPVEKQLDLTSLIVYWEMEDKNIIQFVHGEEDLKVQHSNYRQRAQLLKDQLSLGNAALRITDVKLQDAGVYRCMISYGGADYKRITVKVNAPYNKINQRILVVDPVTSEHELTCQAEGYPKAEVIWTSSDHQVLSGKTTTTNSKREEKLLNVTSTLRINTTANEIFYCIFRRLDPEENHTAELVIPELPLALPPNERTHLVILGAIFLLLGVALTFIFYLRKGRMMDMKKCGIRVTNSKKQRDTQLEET

- EC50 [1]: 29.9 nM
- fold better binding (EC50) than control antibody 25F7 [1]: ≥ 2 fold
- EC50 [2]: 1.67 nM and 1.81 nM
- Kd [3]: 0.056 nM
- koff [3]: 0.00035 s⁻¹
- kon [3]: 6.3e+06 M⁻¹ s⁻¹
B1: anti-human LAG-3/PD-L1 mAb2 FS18-7-9/84G09 with LALA mutation (bispecific antibody, human IgG1, kappa, L234A L235A)
heavy: EVQLVESGGGLVQPGRSLRLSCAASGFTFDDYAMHWVRQTPGKGLEWVSGISWKSNIIGYADSVKGRFTISRDNAKNSLYLQMNSLRAEDTALYYCARDITGSGSYGWFDPWGQGTLVTVSSASTKGPSVFPLAPSSKSTSGGTAALGCLVKDYFPEPVTVSWNSGALTSGVHTFPAVLQSSGLYSLSSVVTVPSSSLGTQTYICNVNHKPSNTKVDKKVEPKSCDKTHTCPPCPAPEAAGGPSVFLFPPKPKDTLMISRTPEVTCVVVDVSHEDPEVKFNWYVDGVEVHNAKTKPREEQYNSTYRVVSVLTVLHQDWLNGKEYKCKVSNKALPAPIEKTISKAKGQPREPQVYTLPPSWDEPWGEDVSLTCLVKGFYPSDIAVEWESNGQPENNYKTTPPVLDSDGSFFLYSKLTVPYDRWVWPDEFSCSVMHEALHNHYTQKSLSLSPG
light: DIQMTQSPSSLSASVGDRVTITCRASQSISSYLNWYQQKPGKAPKPLIYVASSLQSGVPSSFSGSGSGTDFTLTISSLQPEDFATYYCQQSYSNPITFGQGTRLEIKRTVAAPSVFIFPPSDEQLKSGTASVVCLLNNFYPREAKVQWKVDNALQSGNSQESVTEQDSKDSTYSLSSTLTLSKADYEKHKVYACEVTHQGLSSPVTKSFNRGEC
notes: also called FS18-7-09/84G09LALA; FS18-7-9/84G09 LALA
